Assay results from patent US20220332804A1 (CSL INNOVATION, published 2022).

Columns and labels:
Assay in all cases: SPR, antibody captured, C2 as analyte;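 note: biacore SPR at 37 °C, anti-C2 mAbs captured via goat anti-human IgG on CM5 chips, double-referenced sensorgrams fit to a 1:1 kinetic or steady-state model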
human C2 D710A = molecular target: T1, human C2 D710A (human, UniProt P06681 21-752)
T1 sequence: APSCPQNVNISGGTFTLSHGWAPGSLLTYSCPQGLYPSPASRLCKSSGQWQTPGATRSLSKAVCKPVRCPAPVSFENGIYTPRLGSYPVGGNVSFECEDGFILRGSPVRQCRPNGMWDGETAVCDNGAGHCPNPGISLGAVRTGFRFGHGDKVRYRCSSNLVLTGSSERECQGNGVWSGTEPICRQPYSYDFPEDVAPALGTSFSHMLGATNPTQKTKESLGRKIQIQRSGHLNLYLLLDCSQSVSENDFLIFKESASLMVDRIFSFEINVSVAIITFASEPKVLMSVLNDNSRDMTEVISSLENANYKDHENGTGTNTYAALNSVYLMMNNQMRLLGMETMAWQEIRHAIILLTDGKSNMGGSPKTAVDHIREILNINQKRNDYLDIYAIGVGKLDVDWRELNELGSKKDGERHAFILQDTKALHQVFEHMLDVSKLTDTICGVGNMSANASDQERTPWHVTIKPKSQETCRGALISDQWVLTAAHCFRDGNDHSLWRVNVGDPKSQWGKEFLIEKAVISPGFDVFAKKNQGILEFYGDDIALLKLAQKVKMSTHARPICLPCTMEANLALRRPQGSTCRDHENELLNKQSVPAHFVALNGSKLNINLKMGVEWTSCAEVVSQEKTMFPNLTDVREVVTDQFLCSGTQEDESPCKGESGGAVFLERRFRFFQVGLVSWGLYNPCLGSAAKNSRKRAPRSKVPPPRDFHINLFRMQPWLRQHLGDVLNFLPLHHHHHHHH

human C2 G530A = molecular target: T2, human C2 G530A (human, UniProt P06681 21-752)
T2 sequence: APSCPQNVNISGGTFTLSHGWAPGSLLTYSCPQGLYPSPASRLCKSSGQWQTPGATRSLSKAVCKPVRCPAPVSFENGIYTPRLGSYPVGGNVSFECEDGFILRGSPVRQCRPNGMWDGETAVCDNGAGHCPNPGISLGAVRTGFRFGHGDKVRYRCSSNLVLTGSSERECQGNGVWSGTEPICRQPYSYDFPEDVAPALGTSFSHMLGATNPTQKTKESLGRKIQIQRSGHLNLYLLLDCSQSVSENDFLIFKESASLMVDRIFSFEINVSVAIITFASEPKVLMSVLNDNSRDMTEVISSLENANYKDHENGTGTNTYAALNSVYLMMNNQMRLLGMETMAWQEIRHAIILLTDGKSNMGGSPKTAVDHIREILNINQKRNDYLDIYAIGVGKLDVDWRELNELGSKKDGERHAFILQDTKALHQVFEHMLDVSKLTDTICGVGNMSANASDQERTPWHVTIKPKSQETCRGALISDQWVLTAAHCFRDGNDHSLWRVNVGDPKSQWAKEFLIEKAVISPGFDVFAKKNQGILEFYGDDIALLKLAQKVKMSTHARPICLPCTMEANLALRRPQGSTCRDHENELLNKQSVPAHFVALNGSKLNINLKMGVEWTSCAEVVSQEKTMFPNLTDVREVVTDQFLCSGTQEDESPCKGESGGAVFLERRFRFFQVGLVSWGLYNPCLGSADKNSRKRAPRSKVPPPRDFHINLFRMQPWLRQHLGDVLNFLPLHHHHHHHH

[1] = molecular target: T3, human complement C2 (wild type) (human, UniProt P06681 21-752)
T3 construct: Full-length human C2 (NP_000054) with C-terminal 8x His tag, secreted from Expi293F cells and purified from the supernatant; also called WT; huC2
T3 sequence: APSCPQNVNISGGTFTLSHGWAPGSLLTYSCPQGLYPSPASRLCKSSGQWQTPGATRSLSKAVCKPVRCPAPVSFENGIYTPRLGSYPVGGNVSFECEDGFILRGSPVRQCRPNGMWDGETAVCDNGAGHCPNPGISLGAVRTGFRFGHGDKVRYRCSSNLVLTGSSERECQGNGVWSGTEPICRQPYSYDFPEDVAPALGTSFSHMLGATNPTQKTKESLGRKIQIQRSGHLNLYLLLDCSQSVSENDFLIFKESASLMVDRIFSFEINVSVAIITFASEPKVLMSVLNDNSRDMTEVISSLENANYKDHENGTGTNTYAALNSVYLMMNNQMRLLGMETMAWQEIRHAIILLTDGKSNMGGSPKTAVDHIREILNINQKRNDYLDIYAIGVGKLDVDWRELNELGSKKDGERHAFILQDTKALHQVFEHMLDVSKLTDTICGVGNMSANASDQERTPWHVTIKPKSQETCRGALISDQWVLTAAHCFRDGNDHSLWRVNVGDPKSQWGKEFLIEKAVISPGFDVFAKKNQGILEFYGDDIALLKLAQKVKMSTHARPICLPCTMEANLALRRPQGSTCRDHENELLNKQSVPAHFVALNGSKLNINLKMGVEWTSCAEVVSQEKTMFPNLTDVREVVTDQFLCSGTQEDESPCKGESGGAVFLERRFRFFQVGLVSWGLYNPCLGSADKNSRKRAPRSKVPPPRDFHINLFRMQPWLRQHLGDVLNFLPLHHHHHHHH

B1: RF16-226 (antibody, human IgG4 S228P, lambda)
heavy: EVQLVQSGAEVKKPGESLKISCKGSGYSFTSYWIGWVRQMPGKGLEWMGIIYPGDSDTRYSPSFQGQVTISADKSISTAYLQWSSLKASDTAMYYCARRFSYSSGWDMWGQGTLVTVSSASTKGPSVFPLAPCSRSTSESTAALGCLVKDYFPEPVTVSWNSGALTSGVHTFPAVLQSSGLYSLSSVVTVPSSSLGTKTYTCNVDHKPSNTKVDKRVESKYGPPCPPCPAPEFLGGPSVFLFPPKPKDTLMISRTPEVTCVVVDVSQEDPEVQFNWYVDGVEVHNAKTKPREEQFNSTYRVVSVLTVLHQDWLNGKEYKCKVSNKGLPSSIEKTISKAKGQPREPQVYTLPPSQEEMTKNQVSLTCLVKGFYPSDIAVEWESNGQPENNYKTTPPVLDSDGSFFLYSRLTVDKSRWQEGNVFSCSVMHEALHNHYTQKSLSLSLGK
light: SYELTQPPSVSVSPGQTARITCSGDALTSKYVAWYQQKSGLAPLLVIYEDTRRPSGIPAKFSGSSSGSVATLTISGAHGDDEADYYCYSTDASGHQRVFGGGTKLTVLSQPKAAPSVTLFPPSSEELQANKATLVCLISDFYPGAVTVAWKADGSPVKAGVETTKPSKQSNNKYAASSYLSLTPEQWKSHRSYSCQVTHEGSTVEKTVAPTECS
notes: pH-dependent anti-C2 antibody from a phage display library; also called WT
Q: Which results are given for B1?
A: Kd (human C2 D710A): 97.4 nM; Kd (human C2 G530A): 16.7 nM; Kd [1]: 10.1 nM
